Target: NY-ESO-1_(60–72)–HLA-B*07:02 complex (human)
Experiment: SPR

Chain of KFJ4 TCR, soluble ectodomain (TRAV13-1 α-chain) (P01848 whole entry, looked up, the tested form may be a part): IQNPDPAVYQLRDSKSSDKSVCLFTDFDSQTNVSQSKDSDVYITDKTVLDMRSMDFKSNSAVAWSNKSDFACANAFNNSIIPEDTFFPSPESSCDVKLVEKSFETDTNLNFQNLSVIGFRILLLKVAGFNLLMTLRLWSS
Chain of KFJ15 TCR, soluble ectodomain (P01848 whole entry, looked up, the tested form may be a part): as above

KFJ4 TCR, soluble ectodomain (TRAV13-1 α-chain) (from UniProt P01848)
Kd: 52.1 µM | koff: 0.12 s⁻¹

KFJ15 TCR, soluble ectodomain (from UniProt P01848)
Kd: 41.5 µM

KFJ37 TCR, soluble ectodomain (from UniProt A0A0B4J268 18-107; A0A0B4J1U6 20-113)
Kd: 40.6 µM | koff: 0.109 s⁻¹
